The star is where a group is joined. Myristoyl = CCCCCCCCCCCCCC(=O)*

The results in this text go back to patent EP2108954A1, “A test system for detecting intracellular cyclic nucleotide level and methods and uses thereof” (Max-Planck-Gesellschaft zur Förderung der Wissenschaften …, priority 2008, dated 2009).

The experiment has as its target T1, Or83b (Drosophila melanogaster, UniProt Q9VNB5).
T1 sequence (Q9VNB5 1-486): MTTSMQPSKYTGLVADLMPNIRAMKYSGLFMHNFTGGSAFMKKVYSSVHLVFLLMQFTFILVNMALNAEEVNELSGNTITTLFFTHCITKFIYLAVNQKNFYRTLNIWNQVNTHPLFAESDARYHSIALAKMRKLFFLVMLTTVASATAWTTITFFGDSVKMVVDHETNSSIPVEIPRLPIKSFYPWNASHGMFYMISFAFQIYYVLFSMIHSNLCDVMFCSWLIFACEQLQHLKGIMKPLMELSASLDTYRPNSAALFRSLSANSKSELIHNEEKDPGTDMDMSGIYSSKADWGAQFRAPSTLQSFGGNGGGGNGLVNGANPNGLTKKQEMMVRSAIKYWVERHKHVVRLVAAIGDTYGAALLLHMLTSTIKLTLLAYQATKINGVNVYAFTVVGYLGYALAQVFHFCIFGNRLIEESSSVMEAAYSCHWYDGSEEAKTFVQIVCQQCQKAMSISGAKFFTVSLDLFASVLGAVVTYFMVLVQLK
The experiment can be described thus: Whole-cell patch-clamp of HEK293 cells expressing Or83b alone. Conditions: 1 µM; n = 6. Also noted: expressed in transfected cells; host or cells: HEK293. In kind it is cell-based. The procedure: HEK293 cells were cultured as described by Wicher and colleagues (Wicher et al., J. Biol. Chem. 281, 3227-36 (2006)). In brief, HEK293 cells were cultured at a density of ∼2*10^4 per 35-mm dish and transfected with 1 µg pcDNA3-DOR22a-GFP and 1 µg pcDNA3-DOR83b-GFP (Neuhaus, et al., Nat. Neurosci. 8, 15-17 (2005); DNAs were a generous gift of Dr. E. Neuhaus and Dr. H. Hatt) using Roti-Fect transfection kit (Roth, Karlsruhe, Germany). In some experiments we transfected cells with pcDNA3-DOR22a-GFP or pcDNA3-DOR83b-GFP alone. We also examined the properties of DOR47a, which was cloned, using standard molecular biology methods into a pcDNA3.1(-) expression vector. To test for putative G-protein coupling, cells were transfected with the respective OR-DNA together with 1.5 µg hHCN2/pcDNA3 (provided by M. Biel, Munich, Germany), with 1 µg hKCNQ4/pcDNA3.1 or with 1 µg hCNGA2/pCMV6-XL4 (Origene, Rockville, MD, USA).
Ion currents in HEK293 cells were measured with the patch-clamp technology as described (Wicher et al, J. Biol. Chem. 281, 3227-36 (2006)). In brief, ion currents in HEK293 cells were measured at room temperature using whole-cell patch-clamp with appropriate compensation of series resistance and of capacitive currents. Additional experiments were performed in the outside-out configuration. […]
A general note: The patch-clamp technique gives a direct electrical read-out from membranes.

As for “myristoylated PKA inhibiting peptide 14-22 amide (Myristoyl-SGRTGRRNA-NH2; SMILES CCCCCCCCCCCCCC(=O)N[C@@H](CO)C(=O)NCC(=O)N[C@@H](CCCNC(=N)N)C(=O)N[C@H](C(=O)NCC(=O)N[C@@H](CCCNC(=N)N)C(=O)N[C@@H](CCCNC(=N)N)C(=O)N[C@@H](CC(N)=O)C(=O)N[C@@H](C)C(N)=O)[C@@H](C)O; UniProt P61925 14-22, looked up, fragment) [PKI1422]”, the “effect of preincubation on ion currents elicited by 8-bromo-cAMP” value was “not significantly altered”.
